Assay results: publication PMC3778711, “The central role of mosquito cytochrome P450 CYP6Zs in insecticide detoxification revealed by functional expression and structural modelling” (Biochemical Journal, 2013)

T1: CYP6Z2 (AgCYP6Z2) (Anopheles gambiae, UniProt A8I285)
T1 construct: with NADPH--cytochrome P450 reductase
T1 sequence (A8I285 1-492): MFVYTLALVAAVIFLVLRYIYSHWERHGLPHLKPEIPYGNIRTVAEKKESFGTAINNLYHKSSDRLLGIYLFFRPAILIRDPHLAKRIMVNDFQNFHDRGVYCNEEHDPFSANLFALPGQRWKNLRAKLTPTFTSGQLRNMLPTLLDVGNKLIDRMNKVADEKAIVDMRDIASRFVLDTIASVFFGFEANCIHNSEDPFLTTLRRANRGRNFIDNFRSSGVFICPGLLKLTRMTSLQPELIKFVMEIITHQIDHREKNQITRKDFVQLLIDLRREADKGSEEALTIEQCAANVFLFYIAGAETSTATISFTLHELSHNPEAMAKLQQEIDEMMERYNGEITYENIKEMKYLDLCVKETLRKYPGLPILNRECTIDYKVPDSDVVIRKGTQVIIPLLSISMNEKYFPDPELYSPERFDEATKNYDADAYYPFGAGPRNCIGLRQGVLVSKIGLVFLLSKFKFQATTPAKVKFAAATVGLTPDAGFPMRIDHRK
T1 sequence (Q86QH5 1-679 partner): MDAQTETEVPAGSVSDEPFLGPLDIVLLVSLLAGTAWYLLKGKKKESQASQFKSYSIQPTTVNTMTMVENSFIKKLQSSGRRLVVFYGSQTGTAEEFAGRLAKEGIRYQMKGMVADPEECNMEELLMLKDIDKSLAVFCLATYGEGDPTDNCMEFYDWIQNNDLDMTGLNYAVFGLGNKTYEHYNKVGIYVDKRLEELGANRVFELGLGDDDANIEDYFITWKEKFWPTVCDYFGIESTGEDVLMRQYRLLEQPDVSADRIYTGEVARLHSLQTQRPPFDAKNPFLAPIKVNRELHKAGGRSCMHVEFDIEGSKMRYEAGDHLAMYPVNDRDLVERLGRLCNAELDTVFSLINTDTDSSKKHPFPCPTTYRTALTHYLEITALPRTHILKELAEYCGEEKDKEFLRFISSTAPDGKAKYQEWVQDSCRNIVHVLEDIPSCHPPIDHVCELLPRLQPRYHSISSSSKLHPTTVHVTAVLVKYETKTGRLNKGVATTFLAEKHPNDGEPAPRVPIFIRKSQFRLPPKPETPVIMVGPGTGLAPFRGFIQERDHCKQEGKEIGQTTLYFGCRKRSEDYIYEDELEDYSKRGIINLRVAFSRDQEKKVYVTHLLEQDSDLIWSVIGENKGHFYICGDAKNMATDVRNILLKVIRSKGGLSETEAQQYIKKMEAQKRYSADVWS

B1: CYP6Z8 (W(AeR)-CYP6Z8 microsomes; CYP6Z8v1) (Aedes aegypti) (protein)
chain: MFIYTFALFWLAVAFAIRYIYSYWDRNGLPSIKPHIPYGNLKTVANRTESFGVATCDLYWKSKDRLVGIYLFFRPAVLIRDAHLAQQIMTTDFSHFHDRGVFCNEEVDPFSANLFALAGKRWRNLRNKFTPLFTGGQLRCMMPTILNVGHKLQNVLEPAAKKQEVLEIRELVSRCVLDIIASVFFGFEANCINDPNDAFIQNLRELQYDGFFNNLRAAATFICPELLKLTRISSLSPEMIRFVTDIVTKQIEHREKNNVTRKDFIQLLIDLRREDANNNEATLGLEECAANVFLFYVAGSDTSTSAVAFTLHELTQNVETMEKLQTEIDEMLVKTSGELTYDGIKEMSYLDLCVKETLRKYPGLAILNRECTKSYAVPNSNIVLKKGTQVVIPLLAYGMDEKYFPEPDRYLPERFDKSTKNYDEKAFYPFGEGPRNCIAFRMGVMVSKICLVLLLSRFNFEATRGPKINFTPSTVALLPKGGIPVKISIR
notes: full-length, no protein modification; codon-optimised gene in S. cerevisiae W(AeR) with Ae. aegypti CPR integrated; microsomes; with NADPH--cytochrome P450 reductase

Experiments:
CYP6Z2 (AgCYP6Z2) = target: T1, CYP6Z2 (AgCYP6Z2); assay: reverse-phase HPLC, E. coli membranes; format: biochemical; settings: 10 μM substrate, 0.1 mM NADPH with regeneration system, 5 mM MgCl2, 30°C
[1] = substrate: CCCCCOc1ccc2nc3ccc(=O)cc-3oc2c1; assay: resorufin fluorescence, yeast microsomes; format: biochemical, Aedes aegypti; settings: apparent, 0.1 mM NADPH with regeneration system, 0.1 M phosphate pH 7.4, 30°C, 15 min
Text: (§1) resorufin fluorescence, yeast microsomes on CYP6Z8 (W(AeR)-CYP6Z8 microsomes; CYP6Z8v1)

[2] = substrate: CCOc1ccc2nc3ccc(=O)cc-3oc2c1; assay: resorufin fluorescence, yeast microsomes; format: biochemical, Aedes aegypti; settings: apparent, 0.1 mM NADPH with regeneration system, 0.1 M phosphate pH 7.4, 30°C, 15 min
Text: as §1

[3] = substrate: O=c1ccc2nc3ccc(OCc4ccccc4)cc3oc-2c1; assay: resorufin fluorescence, yeast microsomes; format: biochemical, Aedes aegypti; settings: apparent, 0.1 mM NADPH with regeneration system, 0.1 M phosphate pH 7.4, 30°C, 15 min
Text: as §1

[4] = substrate: CCOc1ccc2ccc(=O)oc2c1; assay: 7-hydroxycoumarin fluorescence (O-de-ethylation), yeast microsomes; format: biochemical, Aedes aegypti; settings: apparent, 0.1 mM NADPH with regeneration system, 0.1 M phosphate pH 7.4, 30°C, 15 min
Text: 7-hydroxycoumarin fluorescence (O-de-ethylation), yeast microsomes on CYP6Z8 (W(AeR)-CYP6Z8 microsomes; CYP6Z8v1)

[5] = substrate: OCc1cccc(Oc2ccccc2)c1; assay: reverse-phase HPLC, yeast microsomes; format: biochemical, Aedes aegypti; settings: 0.1 mM NADPH with regeneration system, 5 mM MgCl2, 30°C

Molecule | reverse-phase HPLC, E. coli membranes (CYP6Z2 (AgCYP6Z2)) | Km [1] [µM] | kcat [1] [min⁻¹] | Km [2] [µM] | kcat [2] [min⁻¹] | Km [3] [µM] | kcat [3] [min⁻¹] | Km [4] [µM] | kcat [4] [min⁻¹] | Km [5] [µM] | kcat [5] [min⁻¹]
O=Cc1cccc(Oc2ccccc2)c1 [PBAld] | demonstrated the ability of CYP6Z2 to metabolize both PBAlc and PBAld |  |  |  |  |  |  |  |  |  | 
OCc1cccc(Oc2ccccc2)c1 [PBAlc] | demonstrated the ability of CYP6Z2 to metabolize both PBAlc and PBAld |  |  |  |  |  |  |  |  |  | 
B1 |  | 13.96 ± 3.14 | 0.13 ± 0.01 | 2.39 ± 0.28 | 1.19 ± 0.05 | 0.13 ± 0.02 | 0.097 ± 0.002 | 5.90 ± 0.90 | 0.98 ± 0.04 | 15.1 ± 2.9 | 0.66 ± 0.03
